# Literature values, collected in paper PMC3201939.
# Target: Cys22 (UniProt position 23, FIKPTCPYCRR)
substance,measurement,value
"Glutaredoxin 1 (Grx1, thioltransferase) (Homo sapiens)",pKa,3.5
